In patent US20180037651A1 (Janssen / Centocor, published 2018) one finds MFI data, which are given here for 38 molecules.

T1: cyno GPRC5D (cyno, UniProt Q9NZD1 1-343 (human entry))
T1 construct: on transfected HEK293F or Daudi cells; also called cynomolgus monkey GPRC5D
T1 chain: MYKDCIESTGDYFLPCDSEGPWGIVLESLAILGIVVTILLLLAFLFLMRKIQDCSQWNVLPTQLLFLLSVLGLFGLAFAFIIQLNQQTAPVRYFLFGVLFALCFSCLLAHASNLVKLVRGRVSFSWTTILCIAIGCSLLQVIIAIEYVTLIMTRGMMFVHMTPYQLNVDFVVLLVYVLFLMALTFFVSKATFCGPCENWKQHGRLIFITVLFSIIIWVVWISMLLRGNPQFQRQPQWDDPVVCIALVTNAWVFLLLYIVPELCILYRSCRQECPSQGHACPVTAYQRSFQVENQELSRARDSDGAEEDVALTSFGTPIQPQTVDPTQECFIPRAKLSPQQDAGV

B1: GC5B253 (antibody, V domains shown)
VH: QVQLVQSGAEVKKPGSSVKVSCKASGGTFSSYGISWVRQAPGQGLEWMGGIIPIFGNINYAQKFQGRVTITADESTSTAYMELSSLRSEDTAVYYCARVSRRFKRFAYYFDYWGQGTLVTVSS
VL: not shown
notes: GC5H42+PH9L4
B2: GC5B331 (antibody, V domains shown)
VH: EVQLVQSGAEVKKPGESLKISCKGSGYSFTSYWIGWVRQMPGKGLEWMGIIYPGDSDTRYSPSFQGQVTISADKSISTAYLQWSSLKASDTAMYYCARIGFYGRSFRIFDYWGQGTLVTVSS
VL: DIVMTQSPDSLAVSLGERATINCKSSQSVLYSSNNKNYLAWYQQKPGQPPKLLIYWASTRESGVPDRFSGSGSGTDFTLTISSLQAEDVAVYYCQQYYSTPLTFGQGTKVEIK
notes: GC5H35+PH9L2
B3: GC5B333 (printed with GC5H35) (antibody, V domains shown)
VH: B2 VH
VL: not shown
notes: GC5H35+PH9L4
B4: GC5B80 (antibody, V domains shown)
VH: not shown
VL: EIVLTQSPATLSLSPGERATLSCRASQSVSSYLAWYQQKPGQAPRLLIYDASNRATGIPARFSGSGSGTDFTLTISSLEPEDFAVYYCQQRSNWPLTFGQGTKVEIK
notes: GC5H40+PH9L3
B5: GC5B284 (antibody, V domains shown)
VH: not shown
VL: B4 VL
notes: GC5H14+PH9L3
B6: GC5B320 (printed with GC5H92) (antibody, V domains shown)
VH: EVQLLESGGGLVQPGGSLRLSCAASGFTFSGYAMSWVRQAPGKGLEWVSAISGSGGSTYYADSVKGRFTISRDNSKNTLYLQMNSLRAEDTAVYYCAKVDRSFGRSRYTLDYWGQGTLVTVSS
VL: B4 VL
B7: GC5B332 (printed with GC5H89) (antibody, V domains shown)
VH: B2 VH
VL: B4 VL
B8: GC5B492 (antibody, V domains shown)
VH: EVQLVQSGAEVKKPGESLKISCKGSGYSFTSYVIGWVRQMPGKGLEWMGIIYPGYSDTRYSPSFQGQVTISADKSISTAYLQWSSLKASDTAMYYCARVYSFGGRHKALFDYWGQGTLVTVSS
VL: B4 VL
notes: GC5B164 PTM variant; also called GC5H257
B9: GC5B484 (antibody, V domains shown)
VH: B8 VH with V33G, Y55K
VL: B4 VL
notes: GC5B164 PTM variant; also called GC5H265
B10: GC5B498 (antibody, V domains shown)
VH: B8 VH with V33F, Y55D
VL: B4 VL
notes: GC5B164 PTM variant; also called GC5H251
B11: GC5B501 (antibody, V domains shown)
VH: B8 VH with V33W, Y55A
VL: B4 VL
notes: GC5B164 PTM variant; also called GC5H248
B12: GC5B496 (antibody, V domains shown)
VH: B8 VH with V33Y, Y55D
VL: B4 VL
notes: GC5B164 PTM variant; also called GC5H253
B13: GC5B476 (antibody, V domains shown)
VH: B8 VH with V33Y, Y55S
VL: B4 VL
notes: GC5B164 PTM variant; also called GC5H273
B14: GC5B493 (antibody, V domains shown)
VH: B8 VH with V33F
VL: B4 VL
notes: GC5B164 PTM variant; also called GC5H256
B15: GC5B477 (antibody, V domains shown)
VH: B8 VH with Y55S
VL: B4 VL
notes: GC5B164 PTM variant; also called GC5H272
B16: GC5B472 (antibody, V domains shown)
VH: B8 VH with Y55A
VL: B4 VL
notes: GC5B164 PTM variant; also called GC5H277
B17: GC5B486 (antibody, V domains shown)
VH: B8 VH with V33Y, Y55E
VL: B4 VL
notes: GC5B164 PTM variant; also called GC5H263
B18: GC5B473 (antibody, V domains shown)
VH: B8 VH with V33F, Y55A
VL: B4 VL
notes: GC5B164 PTM variant; also called GC5H276
B19: GC5B478 (antibody, V domains shown)
VH: B8 VH with V33F, Y55S
VL: B4 VL
notes: GC5B164 PTM variant; also called GC5H271
B20: GC5B490 (antibody, V domains shown)
VH: B8 VH with V33A, Y55E
VL: B4 VL
notes: GC5B164 PTM variant; also called GC5H259
B21: GC5B481 (antibody, V domains shown)
VH: B8 VH with V33Y, Y55K
VL: B4 VL
notes: GC5B164 PTM variant; also called GC5H268
B22: GC5B494 (antibody, V domains shown)
VH: B8 VH with V33G
VL: B4 VL
notes: GC5B164 PTM variant; also called GC5H255
B23: GC5B475 (antibody, V domains shown)
VH: B8 VH with V33A, Y55A
VL: B4 VL
notes: GC5B164 PTM variant; also called GC5H274
B24: GC5B497 (antibody, V domains shown)
VH: B8 VH with Y55D
VL: B4 VL
notes: GC5B164 PTM variant; also called GC5H252
B25: GC5B505 (antibody, V domains shown)
VH: B8 VH with V33W
VL: B4 VL
notes: GC5B164 PTM variant; also called GC5H244
B26: GC5B488 (antibody, V domains shown)
VH: B8 VH with V33F, Y55E
VL: B4 VL
notes: GC5B164 PTM variant; also called GC5H261
B27: GC5B502 (antibody, V domains shown)
VH: B8 VH with V33W, Y55S
VL: B4 VL
notes: GC5B164 PTM variant; also called GC5H247
B28: GC5B474 (antibody, V domains shown)
VH: B8 VH with V33G, Y55A
VL: B4 VL
notes: GC5B164 PTM variant; also called GC5H275
B29: GC5B487 (antibody, V domains shown)
VH: B8 VH with Y55E
VL: B4 VL
notes: GC5B164 PTM variant; also called GC5H262
B30: GC5B483 (antibody, IgG4, V domains shown)
VH: B8 VH with V33F, Y55K
VL: B4 VL
notes: GC5B164 PTM variant D55K, W33F; IgG4 S228P, L234A, L235A; also called GC5H266
B31: GC5B480 (antibody, V domains shown)
VH: B8 VH with V33A, Y55S
VL: B4 VL
notes: GC5B164 PTM variant; also called GC5H269
B32: GC5B482 (antibody, V domains shown)
VH: B8 VH with Y55K
VL: B4 VL
notes: GC5B164 PTM variant; also called GC5H267
B33: GC5B485 (antibody, V domains shown)
VH: B8 VH with V33A, Y55K
VL: B4 VL
notes: GC5B164 PTM variant; also called GC5H264
B34: GC5B495 (antibody, V domains shown)
VH: B8 VH with V33A
VL: B4 VL
notes: GC5B164 PTM variant; also called GC5H254
B35: GC5B491 (antibody, V domains shown)
VH: B8 VH with V33Y
VL: B4 VL
notes: GC5B164 PTM variant; also called GC5H258
B36: GC5B503 (antibody, V domains shown)
VH: B8 VH with V33W, Y55K
VL: B4 VL
notes: GC5B164 PTM variant; also called GC5H246
B37: GC5B504 (antibody, V domains shown)
VH: B8 VH with V33W, Y55E
VL: B4 VL
notes: GC5B164 PTM variant; also called GC5H245
B38: GC5B479 (antibody, V domains shown)
VH: B8 VH with V33G, Y55S
VL: B4 VL
notes: GC5B164 PTM variant; also called GC5H270

Numbering of substitutions follows the chain as printed. Names and notes keep the numbering of the source.

The first assay has as its target T1, cyno GPRC5D. The experiment in a line: FACS, cyno GPRC5D cells, 1 ug/ml. How it is done:
Whole cell phage panning was completed using the human GPRC5D cells as antigen, as described above. […] These mAbs were initially evaluated for binding to cyno GPRC5D using FACS. […] Briefly, FACS screening was performed by normalizing protein concentration to 1 ug/ml and 100 ul of protein was mixed with 200,000 cells per well. The mAb was allowed to incubate with cells for 1 hour at 4° C. The cells were then washed three times with PBS and 0.2% FBS. […] The cells and secondary antibody were incubated for 1 hour at 4° C. The cells were then washed three times with PBS and 0.2% FBS. The cells were washed again using PBS and 0.2% FBS and then analyzed on FACSarry.
Background: In flow cytometry, cells or beads pass a laser one at a time.
B1 came in with an MFI of 574 MFI.

In turn, B2 gave an MFI of 552 MFI.

In the case of B3, the MFI came to 1590 MFI.

In turn, B4 returned an MFI of 428 MFI.

B5 returned an MFI of 249 MFI.

Regarding B6, the MFI came out at 297 MFI.

In turn, B7 returned an MFI of 299 MFI.

The next assay deals with T2, human GPRC5D (human, UniProt Q9NZD1 1-345).
T2 construct: on transfected HEK293/RBL cells or endogenous on myeloma cells (H929, MM1R, OPM2, LP1, JIM3, patient plasma cells); also called G protein-coupled receptor class C group 5 member D; hGPRC5D
T2 sequence (Q9NZD1 whole entry): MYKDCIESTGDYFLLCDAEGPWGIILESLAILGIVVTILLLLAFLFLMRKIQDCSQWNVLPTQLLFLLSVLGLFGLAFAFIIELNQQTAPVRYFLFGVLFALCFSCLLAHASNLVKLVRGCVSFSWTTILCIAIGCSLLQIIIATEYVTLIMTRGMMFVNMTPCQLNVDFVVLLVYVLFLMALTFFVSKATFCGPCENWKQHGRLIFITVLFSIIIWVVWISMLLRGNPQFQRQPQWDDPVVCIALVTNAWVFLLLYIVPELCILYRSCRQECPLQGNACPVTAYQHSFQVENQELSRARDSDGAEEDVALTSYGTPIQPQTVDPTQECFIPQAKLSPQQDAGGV
Nature of the assay: FACS, human GPRC5D cells.
B8: the MFI is greater than 10000 mfi.

For the molecule B9, the MFI is 1000 to 10000 mfi.

Regarding B10, the MFI is greater than 10000 mfi.

As for B11, the MFI was greater than 10000 mfi.

In turn, B12 registered an MFI greater than 10000 mfi.

In turn, B13 showed an MFI greater than 10000 mfi.

For the molecule B14, the MFI is greater than 10000 mfi.

Take B15: the MFI was in the range of 1000 to 10000 mfi.

Take B16: the MFI lay within 1000 to 10000 mfi.

The molecule B17 returned an MFI greater than 10000 mfi.

B18 registered an MFI greater than 10000 mfi.

Molecule B19 gave an MFI greater than 10000 mfi.

On to B20, for which the MFI fell in the range of 1000 to 10000 mfi.

The molecule B21 displayed an MFI greater than 10000 mfi.

B22 showed an MFI of 1000 to 10000 mfi.

In turn, B23 gave an MFI of 1000 to 10000 mfi.

For the molecule B24, the MFI was greater than 10000 mfi.

As to B25, the MFI was greater than 10000 mfi.

In turn, B26 returned an MFI greater than 10000 mfi.

In turn, B27 showed an MFI greater than 10000 mfi.

As for B28, the MFI was 1000 to 10000 mfi.

Molecule B29 came in with an MFI of 1000 to 10000 mfi.

B30 displayed an MFI greater than 10000 mfi.

As to B31, the MFI is 1000 to 10000 mfi.

The molecule B32 yielded an MFI greater than 10000 mfi.

As for B33, the MFI fell in the range of 1000 to 10000 mfi.

The molecule B34 came in with an MFI of 1000 to 10000 mfi.

B35 returned an MFI greater than 10000 mfi.

B36 returned an MFI greater than 10000 mfi.

As to B37, the MFI was greater than 10000 mfi.

The molecule B38 yielded an MFI of 1000 to 10000 mfi.
